In US20210317225A1 (Genmab, published 2021):

Columns and labels:
[1] = biological target: T1, Human CD137 shuffle 6 (amino acids 24-47 replaced by wild boar CD137) (human, amino acids 24-47 from wild boar, UniProt Q07011 26-200); test: flow cytometry on transfected HEK293T-17 cells
T1 construct: also called shuffle construct 6
T1 chain: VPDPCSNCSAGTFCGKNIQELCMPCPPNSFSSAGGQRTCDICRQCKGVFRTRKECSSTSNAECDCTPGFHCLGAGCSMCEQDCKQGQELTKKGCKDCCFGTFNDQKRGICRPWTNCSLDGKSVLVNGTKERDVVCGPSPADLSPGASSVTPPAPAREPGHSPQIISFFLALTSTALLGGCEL
Experimental: (§1) 3×10⁶ HEK293T-17 cells were seeded in T75 culture flasks (Greiner Bio-One, cat. no. 658175) in 20 mL RPMI 1640 GlutaMAX medium containing 10% FCS (Biochrom, cat. no. S 0115). After O/N incubation, cells were transiently […] with expression vectors encoding the shuffle constructs or the wild boar, African elephant or human CD137 downstream of a constitutively active human elongation factor-1 alpha (EF-1 alpha) promotor using TransIT®-LT1 Transfection Reagent, Mirus Bio (VWR International, cat. no. 731-0029), according to the manufacturer's instructions. The next day, cells were harvested using 1.5 mL Accutase (Sigma Aldrich, cat. no. A6964) (incubation at 37° C. for 5 min.) and flow cytometry was performed, essentially as described in Example 4, to measure surface expression of the shuffle constructs and the human, African elephant and wild boar CD137 and to measure binding of the antibody clones to the different shuffle constructs. To measure cell surface expression of the constructs, transduced cells were incubated with 1 μg/mL goat polyclonal anti-human CD137 (R&D Systems, cat. no. AF838) in FACS buffer (D-PBS supplemented with 5 mM EDTA [Sigma Aldrich, cat. no. 03690] and 5% (v/v) fetal bovine serum [FBS, Biochrom, cat. no. S 0115]) (4° C., 20 min.), followed by incubation with APC-labeled anti-goat IgG (H+L) (R&D Systems, cat. no. F0108) (4° C., 20 min.). Binding of the different CD137 antibody clones to cells expressing the shuffle constructs was measured by incubation of the transduced cells with 1 μg/mL of the antibody clones, followed by APC-labeled AffiniPure F(ab′)2 Fragment (1:50 final dilution; Jackson, cat. no. 109-136-127).

[2] = biological target: T2, Human CD137 shuffle 1 (amino acids 162-186 replaced by wild boar CD137) (human, amino acids 162-186 from wild …, UniProt Q07011 24-255); test: flow cytometry on transfected HEK293T-17 cells, 1 µg/mL antibody
T2 construct: also called shuffle construct 1
T2 chain: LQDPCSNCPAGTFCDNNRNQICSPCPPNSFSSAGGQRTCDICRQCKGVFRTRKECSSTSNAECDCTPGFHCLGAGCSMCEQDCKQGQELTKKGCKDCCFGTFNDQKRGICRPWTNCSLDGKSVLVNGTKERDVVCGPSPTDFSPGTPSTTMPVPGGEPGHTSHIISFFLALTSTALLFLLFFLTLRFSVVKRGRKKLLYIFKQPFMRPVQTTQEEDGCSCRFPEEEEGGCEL
Experimental: as §1

[3] = biological target: T3, Human CD137 shuffle 2 (amino acids 139-161 replaced by wild boar CD137) (human, amino acids 139-161 from wild …, UniProt Q07011 24-255); test: as above
T3 construct: also called shuffle construct 2
T3 chain: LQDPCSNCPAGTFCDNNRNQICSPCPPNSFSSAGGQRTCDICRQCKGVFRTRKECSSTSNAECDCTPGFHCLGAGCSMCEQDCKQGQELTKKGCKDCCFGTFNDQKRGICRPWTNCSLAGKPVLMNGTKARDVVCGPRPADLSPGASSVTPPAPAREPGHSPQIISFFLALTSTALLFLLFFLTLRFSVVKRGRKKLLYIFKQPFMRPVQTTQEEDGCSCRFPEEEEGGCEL
Experimental: as §1

[4] = biological target: T4, Human CD137 shuffle 3 (amino acids 115-138 replaced by wild boar CD137) (human, amino acids 115-138 from wild …, UniProt Q07011 24-255); test: as above
T4 construct: also called shuffle construct 3
T4 chain: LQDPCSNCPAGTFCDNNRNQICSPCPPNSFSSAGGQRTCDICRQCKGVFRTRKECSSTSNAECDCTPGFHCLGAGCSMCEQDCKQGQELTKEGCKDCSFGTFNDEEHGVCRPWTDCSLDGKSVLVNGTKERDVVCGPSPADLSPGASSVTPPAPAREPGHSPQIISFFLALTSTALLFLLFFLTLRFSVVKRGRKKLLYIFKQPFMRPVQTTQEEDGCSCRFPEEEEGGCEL
Experimental: as §1

[5] = biological target: T5, Human CD137 shuffle 4 (amino acids 89-114 replaced by wild boar CD137) (human, amino acids 89-114 from wild boar, UniProt Q07011 24-255); test: as above
T5 construct: also called shuffle construct 4
T5 chain: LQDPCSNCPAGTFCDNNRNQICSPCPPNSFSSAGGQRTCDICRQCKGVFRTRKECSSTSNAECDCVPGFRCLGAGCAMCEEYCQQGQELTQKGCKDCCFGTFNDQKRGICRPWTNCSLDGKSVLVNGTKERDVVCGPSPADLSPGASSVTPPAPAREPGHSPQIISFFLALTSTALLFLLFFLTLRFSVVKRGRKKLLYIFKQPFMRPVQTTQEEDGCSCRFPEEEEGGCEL
Experimental: as §1

[6] = biological target: T6, Human CD137 shuffle 5 (amino acids 48-88 replaced by African elephant CD137) (human, amino acids 48-88 from African …, UniProt Q07011 24-255); test: as above
T6 construct: also called shuffle construct 5
T6 chain: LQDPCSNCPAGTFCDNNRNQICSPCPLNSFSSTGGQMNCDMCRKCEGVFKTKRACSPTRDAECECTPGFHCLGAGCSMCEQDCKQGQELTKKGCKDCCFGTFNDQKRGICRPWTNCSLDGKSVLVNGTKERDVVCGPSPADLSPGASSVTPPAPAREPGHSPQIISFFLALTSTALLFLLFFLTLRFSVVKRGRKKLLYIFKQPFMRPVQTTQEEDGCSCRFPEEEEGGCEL
Experimental: as §1

[7] = biological target: T7, Human CD137 (TNR9_Human) (human, UniProt Q07011 24-255); test: flow cytometry, HEK293-T17 cells transiently transfected with human CD137, antibody at 1 µg/mL, APC-labeled F(ab')2 secondary
T7 construct: Full-length human CD137 expressed on HEK293T-17, NF-kB/293/GFP-Luc or K562 cells, or native on T cells; also called hCD137 wt; 4-1BB
T7 sequence (Q07011 24-255): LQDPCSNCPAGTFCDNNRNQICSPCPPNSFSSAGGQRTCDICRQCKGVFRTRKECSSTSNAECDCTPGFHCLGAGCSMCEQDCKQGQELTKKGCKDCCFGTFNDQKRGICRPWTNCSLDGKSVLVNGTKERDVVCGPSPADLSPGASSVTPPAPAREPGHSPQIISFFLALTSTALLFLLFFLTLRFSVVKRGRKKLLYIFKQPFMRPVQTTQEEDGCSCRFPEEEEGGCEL
Experimental: FIG. 4: Binding of CD137 antibody clones to CD137 shuffle constructs expressed on HEK293-T17 cells. HEK293-T17 cells were transfected with the CD137 shuffle constructs, and with human CD137 (hCD137 wt), African elephant of wild boar CD137, as indicated. Binding of the different CD137 antibody clones to these constructs expressed on HEK293-T17 cells was measured by flow cytometry. Staining with polyclonal anti-CD137 antibody is shown as a control.
as §1

- binding result [1]: no binding (tested: 1 µg/mL)
- binding result [2]: binds
- binding result [3]: binds
- binding result [4]: binds
- binding result [5]: binds
- binding result [6]: binds
- binding result [7]: binds
B1: CD137 antibody clone 005 (rabbit) (antibody, human IgG1, kappa, V domains shown)
VH: QSVEESGGRLVTPGTPLTLTCTASGFTISDFHVTWVRQAPGKGLEWIGTIITSASTTAYATWARGRFTISKSSTTVNLKIVSPTTEDTATYFCARSTYTDTSGYYFDFWGQGTLVTVSS
VL: AQVLTQTASPVSAAVGGTVIINCQSSQSIYNGNRLSWYQQKPGQPPKLLIYSASTLASGVSSRFKGSGSGTQFTLAISDVQSDDAATYYCLGSYDCDSADCFAFGGGTEVVVER
notes: also called Clone 5; CD137 clone 005
